This is an account of results in patent publication US20090029467A1.

Holding throughout (test): cell-based or functional assay
Assay [1] concerns the target cation-independent mannose-6-phosphate/IGF-II receptor on GM4668 human skin fibroblasts (human) (UniProt P11717).
Assay [2] shares this target. This is another data set of the same source.
Assay [3] has the same target. This is another data set of the same source.
Assay [4] has the same target. This is another data set of the same source.

Like-named read-outs stand apart in the source and are kept apart here.

Sequence of UniProt P11717 (P11717 41-2491): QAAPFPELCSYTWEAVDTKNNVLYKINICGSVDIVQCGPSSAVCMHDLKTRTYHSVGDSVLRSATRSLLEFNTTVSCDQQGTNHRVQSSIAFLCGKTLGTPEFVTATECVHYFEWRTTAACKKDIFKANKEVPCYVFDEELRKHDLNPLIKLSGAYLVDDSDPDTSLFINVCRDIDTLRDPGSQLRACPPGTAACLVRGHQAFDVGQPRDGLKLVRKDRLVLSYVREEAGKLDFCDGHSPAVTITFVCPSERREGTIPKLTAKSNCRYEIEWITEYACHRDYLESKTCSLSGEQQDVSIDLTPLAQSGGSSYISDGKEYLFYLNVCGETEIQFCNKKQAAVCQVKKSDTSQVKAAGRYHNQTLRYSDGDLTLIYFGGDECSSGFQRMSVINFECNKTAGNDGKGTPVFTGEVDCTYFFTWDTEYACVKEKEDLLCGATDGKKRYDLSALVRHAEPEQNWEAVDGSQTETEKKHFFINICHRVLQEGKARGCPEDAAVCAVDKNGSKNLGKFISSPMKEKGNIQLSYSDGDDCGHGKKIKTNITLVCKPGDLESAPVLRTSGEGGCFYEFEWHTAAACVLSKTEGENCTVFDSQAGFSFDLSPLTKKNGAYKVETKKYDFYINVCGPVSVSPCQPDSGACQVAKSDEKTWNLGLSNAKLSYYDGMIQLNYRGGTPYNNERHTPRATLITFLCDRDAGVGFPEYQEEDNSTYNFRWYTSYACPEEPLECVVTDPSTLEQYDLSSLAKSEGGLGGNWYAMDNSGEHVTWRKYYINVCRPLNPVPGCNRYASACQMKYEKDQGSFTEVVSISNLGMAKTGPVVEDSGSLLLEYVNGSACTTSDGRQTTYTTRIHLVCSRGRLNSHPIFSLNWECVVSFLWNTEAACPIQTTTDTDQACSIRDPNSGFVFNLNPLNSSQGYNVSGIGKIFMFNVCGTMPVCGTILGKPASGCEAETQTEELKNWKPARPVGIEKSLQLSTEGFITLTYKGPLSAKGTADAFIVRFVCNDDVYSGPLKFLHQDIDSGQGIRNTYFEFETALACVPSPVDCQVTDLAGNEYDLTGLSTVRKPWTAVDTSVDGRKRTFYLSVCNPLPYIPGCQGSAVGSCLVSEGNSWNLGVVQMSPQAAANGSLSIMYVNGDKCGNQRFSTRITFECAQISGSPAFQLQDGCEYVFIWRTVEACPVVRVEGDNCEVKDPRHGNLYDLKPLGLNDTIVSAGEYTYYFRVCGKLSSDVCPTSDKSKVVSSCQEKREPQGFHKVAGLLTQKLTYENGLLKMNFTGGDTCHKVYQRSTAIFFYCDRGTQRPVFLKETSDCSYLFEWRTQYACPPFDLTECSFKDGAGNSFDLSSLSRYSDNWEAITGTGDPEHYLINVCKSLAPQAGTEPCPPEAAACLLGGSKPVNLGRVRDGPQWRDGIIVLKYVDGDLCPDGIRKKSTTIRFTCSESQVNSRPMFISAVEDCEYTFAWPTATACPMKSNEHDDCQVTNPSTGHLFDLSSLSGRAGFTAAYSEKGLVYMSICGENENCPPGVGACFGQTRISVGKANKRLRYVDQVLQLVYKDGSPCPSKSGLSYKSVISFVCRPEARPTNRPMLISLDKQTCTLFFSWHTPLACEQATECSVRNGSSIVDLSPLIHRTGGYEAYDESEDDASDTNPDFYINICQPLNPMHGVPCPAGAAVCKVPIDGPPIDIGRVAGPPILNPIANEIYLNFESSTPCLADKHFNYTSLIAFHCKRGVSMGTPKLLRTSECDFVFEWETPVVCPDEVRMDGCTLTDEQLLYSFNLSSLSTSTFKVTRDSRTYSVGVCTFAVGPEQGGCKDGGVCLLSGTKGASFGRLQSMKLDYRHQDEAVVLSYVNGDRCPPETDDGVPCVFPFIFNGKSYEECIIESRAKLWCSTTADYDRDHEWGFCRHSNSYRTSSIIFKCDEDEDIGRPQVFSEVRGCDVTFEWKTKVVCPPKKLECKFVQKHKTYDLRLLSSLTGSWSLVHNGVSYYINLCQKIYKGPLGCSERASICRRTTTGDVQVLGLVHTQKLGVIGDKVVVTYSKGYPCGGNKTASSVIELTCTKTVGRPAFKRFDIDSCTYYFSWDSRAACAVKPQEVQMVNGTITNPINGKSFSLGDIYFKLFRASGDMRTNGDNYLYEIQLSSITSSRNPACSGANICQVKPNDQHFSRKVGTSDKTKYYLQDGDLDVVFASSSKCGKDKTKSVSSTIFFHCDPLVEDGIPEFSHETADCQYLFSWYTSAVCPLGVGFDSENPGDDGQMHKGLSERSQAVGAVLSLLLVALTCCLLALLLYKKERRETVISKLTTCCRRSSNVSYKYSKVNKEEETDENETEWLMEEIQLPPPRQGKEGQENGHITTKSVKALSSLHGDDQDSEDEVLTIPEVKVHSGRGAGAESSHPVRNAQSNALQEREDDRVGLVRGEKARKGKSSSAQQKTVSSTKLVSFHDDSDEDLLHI

In assay [1], “CHO GUS-GILTΔ1-7 (from UniProt P08236 23-651)” showed a % IGF-II inhibition of uptake of 73%; a % M6P inhibition of uptake of 28%; a +IGF-II (units/mg), uptake with excess IGF-II of 84 units/mg; a +M6P (units/mg), uptake with excess M6P of 223 units/mg. The molecule further gave an Uptake (units/mg), 18 h in assay [1] of 310 units/mg.

As for “CHO GUSΔC18-GILTΔ1-7 (from UniProt P08236 23-633)”, in assay [2], the % IGF-II inhibition of uptake came out at 75%; the +IGF-II Uptake (units/mg) stood at 1010 units/mg; the Uptake (units/mg), 21 h turned out to be 4080 units/mg. For the same molecule, in assay [3], the % IGF-II + M6P inhibition of uptake was 100%; the % IGF-II inhibition of uptake stood at 70%; the % M6P inhibition of uptake is 60%; the +IGF-II (units/mg), uptake with excess IGF-II worked out at 473 units/mg. Besides, in assay [3], the +IGF-II + M6P (units/mg), uptake with both inhibitors was 0 units/mg; the +M6P (units/mg), uptake with 8 mM M6P was 639 units/mg; the Uptake (units/mg), 22.5 h was 1580 units/mg. In assay [1], this molecule had a % IGF-II inhibition of uptake of 63%; a % M6P inhibition of uptake of 41%; a +IGF-II (units/mg), uptake with excess IGF-II of 258 units/mg; a +M6P (units/mg), uptake with excess M6P of 412 units/mg. In assay [1], the Uptake (units/mg), 18 h came to 704 units/mg.

The molecule “GILT-GUS with Δ1-7 and Y27L mutations in the IGF-II portion, Leishmania-expressed (from UniProt P08236 23-651)” returned a cell-associated GUS activity in GM4668 fibroblasts, relative to unmodified GUS in assay [1] of 5 fold.

Regarding “GUS-IGF-II fusion protein (GUS-GILT), Leishmania-expressed”, in assay [1], the cell-associated GILT-GUS in GM4668 fibroblasts, no competitor (units/mg lysate) was > 24; the cell-associated GILT-GUS in GM4668 fibroblasts, with about 100-fold molar excess of IGF-II is 5.4 U; the cell-associated GUS activity in GM4668 fibroblasts, relative to unmodified GUS came out at 10 fold.

The molecule “HEK GUS-GILT (from UniProt P08236 23-651)” yielded an Uptake (units/mg), 21 h in assay [2] of 1430 units/mg.

On to “HEK GUS-GILTF19S (from UniProt P08236 23-651)”, for which, in assay [2], the % IGF-II inhibition of uptake came to 90.7%; the +IGF-II Uptake (units/mg) worked out at 439 units/mg; the Uptake (units/mg), 21 h was 4730 units/mg. In assay [3], the % IGF-II + M6P inhibition of uptake was 99.1%; the % IGF-II inhibition of uptake was 86%; the % M6P inhibition of uptake turned out to be 60%; the +IGF-II (units/mg), uptake with excess IGF-II stood at 217 units/mg. In addition, in assay [3], the +IGF-II + M6P (units/mg), uptake with both inhibitors came to 15 units/mg; the +M6P (units/mg), uptake with 8 mM M6P is 952 units/mg; the Uptake (units/mg), 22.5 h is 1590 units/mg.

In assay [2], “HEK GUS-GILTF19SE12K (from UniProt P08236 23-651)” gave a % IGF-II inhibition of uptake of 90.8%; a +IGF-II Uptake (units/mg) of 388 units/mg; an Uptake (units/mg), 21 h of 4230 units/mg. Moreover, in assay [3], the % IGF-II + M6P inhibition of uptake came to 100%; the % IGF-II inhibition of uptake was found to be 98.2%; the % M6P inhibition of uptake amounted to 31%; the +IGF-II (units/mg), uptake with excess IGF-II worked out at 22 units/mg. Besides, in assay [3], the +IGF-II + M6P (units/mg), uptake with both inhibitors was determined as 0 units/mg; the +M6P (units/mg), uptake with 8 mM M6P was found to be 846 units/mg; the Uptake (units/mg), 22.5 h was 1230 units/mg.

“HEK GUS-GILTY27L (from UniProt P08236 23-651)”: in assay [2], the Uptake (units/mg), 21 h turned out to be 1510 units/mg.

Take “HEK GUSΔC18-GILTΔ1-7 (from UniProt P08236 23-633)”: in assay [2], the % IGF-II inhibition of uptake was found to be 77%; the +IGF-II Uptake (units/mg) came out at 1210 units/mg; the Uptake (units/mg), 21 h turned out to be 5190 units/mg.

B1: CHO GUS (enzyme, UniProt P08236 23-651, looked up)
chain: LQGGMLYPQESPSRECKELDGLWSFRADFSDNRRRGFEEQWYRRPLWESGPTVDMPVPSSFNDISQDWRLRHFVGWVWYEREVILPERWTQDLRTRVVLRIGSAHSYAIVWVNGVDTLEHEGGYLPFEADISNLVQVGPLPSRLRITIAINNTLTPTTLPPGTIQYLTDTSKYPKGYFVQNTYFDFFNYAGLQRSVLLYTTPTTYIDDITVTTSVEQDSGLVNYQISVKGSNLFKLEVRLLDAENKVVANGTGTQGQLKVPGVSLWWPYLMHERPAYLYSLEVQLTAQTSLGPVSDFYTLPVGIRTVAVTKSQFLINGKPFYFHGVNKHEDADIRGKGFDWPLLVKDFNLLRWLGANAFRTSHYPYAEEVMQMCDRYGIVVIDECPGVGLALPQFFNNVSLHHHMQVMEEVVRRDKNHPAVVMWSVANEPASHLESAGYYLKMVIAHTKSLDPSRPVTFVSNSNYAADKGAPYVDVICLNSYYSWYHDYGHLELIQLQLATQFENWYKKYQKPIIQSEYGAETIAGFHQDPPLMFTEEYQKSLLEQYHLGLDQKRRKYVVGELIWNFADFMTEQSPTRVLGNKKGIFTRQRQPKSAAFLLRERYWKIANETRYPHSVAKSQCLENSLFT
In assay [4], B1 came in with a % IGF-II inhibition of uptake of 5%; a % M6P inhibition of uptake of 99.7%; a % inhibition of uptake by excess IGF-II of 4.5%; a +IGF-II (units/mg), uptake with excess IGF-II of 336 units/mg. Also, in assay [4], the +M6P (units/mg), uptake with excess M6P is 1 units/mg and the Uptake (units/mg), 18 h was found to be 352 units/mg.
